This is an account of results in patent publication US20040121957A1.

The target of this test is ΔNEG2-CFTR (CFTR with amino acids 817-838 deleted) (human), P13569. As to the kind of experiment: cell-based or functional assay.
Chain of ΔNEG2-CFTR (CFTR with amino acids 817-838 deleted) (human), P13569 (P13569 other isoform, or with tags, fused parts or gaps mutant): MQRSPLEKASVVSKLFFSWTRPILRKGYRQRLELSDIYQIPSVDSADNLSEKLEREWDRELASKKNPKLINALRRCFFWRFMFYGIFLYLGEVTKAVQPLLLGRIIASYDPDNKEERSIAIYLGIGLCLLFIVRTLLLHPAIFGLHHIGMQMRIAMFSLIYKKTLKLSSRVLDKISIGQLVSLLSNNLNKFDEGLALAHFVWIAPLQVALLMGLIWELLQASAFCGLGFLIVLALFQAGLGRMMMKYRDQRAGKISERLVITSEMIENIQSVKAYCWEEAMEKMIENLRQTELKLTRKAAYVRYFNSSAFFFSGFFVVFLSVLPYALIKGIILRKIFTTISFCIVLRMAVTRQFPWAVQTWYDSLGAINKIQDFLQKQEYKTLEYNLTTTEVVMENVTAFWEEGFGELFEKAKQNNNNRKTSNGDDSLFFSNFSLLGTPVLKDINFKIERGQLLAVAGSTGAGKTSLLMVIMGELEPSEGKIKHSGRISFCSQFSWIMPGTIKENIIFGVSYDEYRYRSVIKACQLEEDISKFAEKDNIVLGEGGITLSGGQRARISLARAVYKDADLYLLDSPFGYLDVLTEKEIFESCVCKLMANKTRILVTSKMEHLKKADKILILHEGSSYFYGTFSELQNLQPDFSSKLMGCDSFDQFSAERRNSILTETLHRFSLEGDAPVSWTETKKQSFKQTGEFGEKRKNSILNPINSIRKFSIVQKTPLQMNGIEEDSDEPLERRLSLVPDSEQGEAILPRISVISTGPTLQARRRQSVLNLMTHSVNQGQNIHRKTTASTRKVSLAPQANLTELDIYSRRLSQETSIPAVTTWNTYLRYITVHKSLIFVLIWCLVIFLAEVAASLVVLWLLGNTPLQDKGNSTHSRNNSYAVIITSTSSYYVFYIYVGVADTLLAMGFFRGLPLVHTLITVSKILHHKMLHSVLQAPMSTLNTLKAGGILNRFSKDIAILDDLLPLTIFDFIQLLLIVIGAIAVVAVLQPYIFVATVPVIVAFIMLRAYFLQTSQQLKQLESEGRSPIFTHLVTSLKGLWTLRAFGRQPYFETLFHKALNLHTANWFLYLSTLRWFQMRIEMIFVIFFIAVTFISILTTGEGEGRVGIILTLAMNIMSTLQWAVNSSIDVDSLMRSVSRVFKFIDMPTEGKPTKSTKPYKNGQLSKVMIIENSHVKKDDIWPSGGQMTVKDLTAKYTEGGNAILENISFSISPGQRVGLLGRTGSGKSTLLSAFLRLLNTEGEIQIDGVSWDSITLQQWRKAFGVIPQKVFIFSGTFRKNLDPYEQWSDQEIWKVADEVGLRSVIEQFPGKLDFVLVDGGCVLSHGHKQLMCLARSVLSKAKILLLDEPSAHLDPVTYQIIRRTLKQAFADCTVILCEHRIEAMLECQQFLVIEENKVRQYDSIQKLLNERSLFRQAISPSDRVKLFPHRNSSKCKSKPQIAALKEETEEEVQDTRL

GLEISEEINEEDLKECFFDDME [synthetic NEG2 peptide (22 amino acid peptide corresponding to CFTR amino acids 817-838)] yielded a stimulation of single channel (peptide concentration) of 0.44 µM.
